Reference: article PMC7835363

Experiments:
[1] = biological target: Schizosaccharomyces japonicus Yop1, full length, with a C-terminal SBP tag (Schizosaccharomyces japonicus) (UniProt B6K529); assay: SEC-MALS; in the detergent DDM; 20 mM Tris/HCl pH 7.5, 100 mM NaCl, 0.03% DDM; protein 0.2-1 mg/ml; protein conjugate model
[2] = biological target: Yop1F65Bpa (S. japonicus Yop1 with the photoreactive probe Bpa at F65 in TM2) (Schizosaccharomyces japonicus) (UniProt B6K529); assay: cross-linking + SEC; Yop1F65Bpa irradiated in liposomes, then membranes solubilized in DDM and run on SEC
[3] = biological target: Yop1F65Bpa (S. japonicus Yop1 with the photoreactive probe Bpa at F65 in TM2) (Schizosaccharomyces japonicus) (UniProt B6K529); assay: cross-linking; photo-cross-linking through Bpa; purified protein reconstituted into liposomes of S. cerevisiae lipid extract at a protein:lipid molar ratio of 1:200; UV for 30 min on an ice-cold block; SDS-PAGE and Coomassie-blue staining

Row | stoichiometry N [1] | stoichiometry N [2] | percent of monomers cross-linked into dimers [3] | Substance
1 | 2 | – | – | Schizosaccharomyces japonicus Yop1, full length, with a C-terminal SBP tag (from UniProt B6K529 1-191) (natural protein)
2 | – | 2 | > 75% | Yop1F65Bpa (S. japonicus Yop1 with the photoreactive probe Bpa at F65 in TM2) (from UniProt B6K529 1-191) (natural protein)
